Measurements as given in patent US20030091568A1, “Inhibitors for the formation of soluble human CD23” (priority 2000, published 2003).

T1: ADAM9 (Homo sapiens, UniProt Q13443)
T1 construct: endogenous in cells
T1 sequence (Q13443 29-819): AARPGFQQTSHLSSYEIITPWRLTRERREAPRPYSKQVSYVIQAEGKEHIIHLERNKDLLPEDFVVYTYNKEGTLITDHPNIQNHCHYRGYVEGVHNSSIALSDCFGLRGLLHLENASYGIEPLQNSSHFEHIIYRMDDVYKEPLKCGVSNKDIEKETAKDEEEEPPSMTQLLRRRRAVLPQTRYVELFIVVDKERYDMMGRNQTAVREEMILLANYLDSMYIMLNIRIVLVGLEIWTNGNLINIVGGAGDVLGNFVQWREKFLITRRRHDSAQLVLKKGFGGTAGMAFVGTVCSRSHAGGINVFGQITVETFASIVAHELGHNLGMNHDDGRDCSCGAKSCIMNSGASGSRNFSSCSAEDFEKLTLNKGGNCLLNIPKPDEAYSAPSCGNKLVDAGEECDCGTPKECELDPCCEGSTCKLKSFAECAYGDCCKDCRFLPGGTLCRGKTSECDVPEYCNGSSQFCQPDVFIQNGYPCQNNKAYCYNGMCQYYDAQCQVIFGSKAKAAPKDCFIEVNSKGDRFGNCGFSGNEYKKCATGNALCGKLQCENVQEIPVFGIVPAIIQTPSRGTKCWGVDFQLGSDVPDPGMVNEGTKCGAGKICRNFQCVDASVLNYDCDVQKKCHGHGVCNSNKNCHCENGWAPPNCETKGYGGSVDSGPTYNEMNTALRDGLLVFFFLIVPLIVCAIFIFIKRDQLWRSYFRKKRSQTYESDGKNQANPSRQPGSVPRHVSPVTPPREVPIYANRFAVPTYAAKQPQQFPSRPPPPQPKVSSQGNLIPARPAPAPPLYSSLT

T2: ADAM10 (Homo sapiens, UniProt O14672)
T2 sequence (O14672 214-748): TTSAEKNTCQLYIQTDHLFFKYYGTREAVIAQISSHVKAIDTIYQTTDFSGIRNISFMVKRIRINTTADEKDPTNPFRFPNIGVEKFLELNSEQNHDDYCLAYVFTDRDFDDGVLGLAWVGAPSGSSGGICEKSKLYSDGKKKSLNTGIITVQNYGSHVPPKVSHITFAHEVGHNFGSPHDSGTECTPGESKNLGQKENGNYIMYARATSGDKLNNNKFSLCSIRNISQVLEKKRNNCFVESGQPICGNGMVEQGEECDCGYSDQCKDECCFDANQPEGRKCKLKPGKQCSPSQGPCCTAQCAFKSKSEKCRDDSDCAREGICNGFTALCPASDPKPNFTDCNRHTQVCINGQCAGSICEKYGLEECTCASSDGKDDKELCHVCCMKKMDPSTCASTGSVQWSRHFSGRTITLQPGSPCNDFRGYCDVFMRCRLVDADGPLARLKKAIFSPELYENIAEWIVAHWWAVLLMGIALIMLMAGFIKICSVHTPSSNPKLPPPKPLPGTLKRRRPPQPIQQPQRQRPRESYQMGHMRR

B1: TIMP-3: tissue inhibitor of metalloproteinases 3 (protein, UniProt P35625 24-211, looked up)
Metalloproteinase inhibitor 3: CTCSPSHPQDAFCNSDIVIRAKVVGKKLVKEGPFGTLVYTIKQMKMYRGFTKMPHVQYIHTEASESLCGLKLEVNKYQYLLTGRVYDGKMYTGLCNFVERWDQLTLSQRKGLNYRYHLGCNCKIKSCYYLPCFVTSKNECLWTDMLSNFGYPGYQSKHYACIRQKGGYCSWYRGWAPPDKSIINATDP

Assays:
ADAM9 = biological target: T1, ADAM9; assay: Shedding of CD23 from human B cell line P493-6 (c-myc "On", endogenous ADAM9); format: cell-based; details: TIMP concentrations known to inhibit MMPs, MT-MMPs, ADAM10 and ADAM17, FIG. 6a
Source text: TIMP-1, -2 and -3 are known to inhibit all known secreted matrix metalloproteinases (MMPs), membrane-type matrix metalloproteinases (MT-MMPs), as well as ADAM10 (inhibited by TIMP-1 and TIMP-3) and ADAM17 (TACE, inhibited by TIMP-3 only). In contrast, it has been shown that membrane bound ADAM9 is not inhibited by either TIMP-1, -2 or -3 (see Example 3, FIG. 3). Using the human B cell line P493-6 with a tetracycline regulatable c-myc gene allowed the upregulation of endogeneous ADAM9 via upregulation of c-myc. […] The decrease in cell surface bound CD23 correlated with the increase in the s-CD23 concentration in the culture medium assayed by ELISA (CD23 ELISA kit, Becton Dickinson, and CD23 ELISA kit, the Binding Site). […]
To inhibit matrix metalloproteinase activity, aliquots of the cells studied (transfected CHO AA8, […]) were washed three-times in serum free medium and further cultured either in the presence (1 μM TC) or absence of TC for 24-48 h, either in the presence of 2 μM batimastat (BB-94, British Biotechnology) or 20 nM-1 μM of either TIMP-1, -2, or TIMP-3. […] Surface CD23 in the presence of either of the inhibitors was quantitated by FACS analyses using a FITC-labelled monoclonal antibody against human CD23 and compared to cells cultured in the absence of the respective inhibitor. […]

ADAM10 = biological target: T2, ADAM10; details: stated as known; cited from earlier work

Molecule | inhibition of CD23 shedding (s-CD23 in culture medium, ELISA) (ADAM9) | inhibition of ADAM10 (ADAM10)
TIMP-1: tissue inhibitor of metalloproteinases 1 | could not be inhibited | inhibited
B1 | could not be inhibited | inhibited
